Source: patent US9333240B2, “Compounds for improving nutritional status, cognition and survival” (YISSUM RESEARCH DEVELOPMENT COMPANY OF THE HEBREW …, priority 2005, dated 2016)
“Also recorded” adds a separate entry of the source.

What was measured:
mice [1] = experiment: Neurological score in TAA model of hepatic encephalopathy; format: in vivo; details: TAA treated mice, Leptin daily for 5 days
Description: Mice were treated with TAA, then 1 mk/kg Leptin was administered daily for 5 days and neurological score was evaluated

mice [2] = experiment: Survival of mice under severe energy restriction (40% DR); format: in vivo; details: for survival time: Kaplan Meir log rank p<0.05
Description: Severe energy restriction leads to deterioration of neural function and eventually death. Since leptin can improve cognitive function following DR to 40% and prevents neural apoptosis, it was investigated whether it may also promote mice survival under these same severe conditions. In the first experiment, mice were fed ad libitum or DR to 40% for 12 days and injected daily with 1 mg/kg leptin or saline during the second week (5 days). 95% of the mice survived with leptin treatment compared to 65% in the control group (p<0.05). In a second experiment, mini-osmotic pumps delivering 0.05 mg/kg/h leptin or saline continuously for 16 days were implanted in mice under 40% DR (12 animals in each group). […] The 50% survival in the treated group increased from 9 to 14 days. (FIG. 5).

mice [3] = experiment: Mortality in TAA model of hepatic encephalopathy; format: in vivo; details: mice ad libitum or DR to 40%, with or without leptin
Description: Mice were maintained on Ad Librium or DR to 40% conditions. TAA was administered with or without leptin. Treated mortalilty rate was recorded everyday.

mice [4] = experiment: Activity index in TAA model of hepatic encephalopathy; format: in vivo; details: TAA treated mice, 1 mg/kg Leptin daily for 5 days
Description: FIG. 10. […] Mice were treated with TAA, then 1 mg/kg Leptin was administrated daily for 5 days and activity index was evaluated.
Mice were treated with TAA to cause an experimental hepatic encephalopathy-brain damaged caused by liver dysfunction and common in people whose liver function deteriorates. The activity index of the animals was assessed. […] FIG. 11.

mice [5] = experiment: Eight-arm maze, mice ad libitum or diet restricted; format: in vivo; details: 1 mg/kg leptin daily for 5 days
Description: Control mice received food ad-libitum. Diet-restricted mice received a diet of 57 kCal/week/mouse (2.16 g/day/mouse) as 60% of the requirement, or 38 kCal/week/mouse (1.44 g/day/mouse) for 40%/DR. DR was carried out for 10 days. Behavioral test was performed using the eight-arm spatial maze during the second week of experiment. […] Mice were sacrificed by decapitation after the behavioral tests and the hippocampi were frozen at −70° C. The animals were placed in an eight-arm maze, which is a scaled-down version of that developed for rats (Randt et al, (1971) Science 172, 489-499; Ziv et al (1994) Neuroscience Lett, 170, 136-140). […] The mice were tested until they made entries into all eight arms or until they completed 24 entries, whichever came first. […] Maze performance was calculated each day for five consecutive days. Results were presented as area under the curve (AUC) utilizing the formula: (day 2+day 3+day 4+day 5)−4*(day 1).

Bcl-2, Bax, PARP = experiment: Hippocampal apoptosis proteins by RT-PCR and immunoblotting; format: in vivo, mice; details: leptin 1 mg/kg, DR to 40%, immunoblotting
Description: Total hippocampal RNA was extracted using […] reagent according to the manufacturer's instructions and reverse transcribed. Primers specific for OBRlong were […] NO: 1) and […] NO: 6), for […] NO: 2), and […] NO: 7), for BAX […] NO: 3) and […] NO: 8) for Bcl-2 […] NO: 4) and […] NO: 9) and for actin […] NO: 5) and […] NO: 10). […] Total hippocampal Protein was extracted using […] reagent. Aliquots of the clarified lysates containing […] were denatured in Laemmli sample buffer (6% SDS 30%, glycerol, 0.02% bromophenol blue, 200 mM Tris-HCl (pH 6.8), and 250 mM-mercaptoethanol, at 95° C. for 5 min. The samples were resolved by SDS-PAGE (10% acrylamide), and blotted onto nitrocellulose membrane. Non-specific binding in a Western blot analysis was prevented by immersing the membranes in blocking buffer (5% nonfat dry milk in Tris-buffer saline-Tween 20 (TBS-T)), for 2 h at room temperature. The membranes were then exposed to the indicated antibodies diluted 1:1000 for 1 h at room temperature. AMPK, phospho-AMPK and PARP were obtained from Cell Signaling. Bax, bcl-2 and actin were from Santa Cruz Biotechnology Inc. (Santa Cruz, Calif.). The blots were rinsed in TBS-T and then incubated with horseradish peroxidase-conjugated goat anti-mouse antibodies 1:10,000 for 1 h at room temperature. Antibody-antigen complexes were visualized by detecting enhanced chemiluminescence with X-ray film.

mice [6] = experiment: Eight-arm maze in LPS administered mice; format: in vivo; details: 1 mg/kg leptin daily
Description: The animals were placed in an eight-arm maze, which is a scaled-down version of that developed for rats (Randt et al, (1971) Science 172, 489-499; Ziv et al (1994) Neuroscience Lett, 170, 136-140). We used water deprivation achieved by limiting water consumption overnight and a reward of 50 μl of water presented at the end of each arm. The mice were tested until they made entries into all eight arms or until they completed 24 entries, whichever came first. […] Maze performance was calculated each day for five consecutive days. Results were presented as area under the curve (AUC) utilizing the formula: (day 2+day 3+day 4+day 5)−4*(day 1).
LPS administered mice were daily treated with 1 mg/kg leptin and then subjected to the eight arm maze.

B1: leptin: Murine leptin provided by A. Gertler; adipokine hormone, full leptin is a 146 amino acid sequence (protein, UniProt P41160 22-167, looked up)
Leptin: VPIQKVQDDTKTLIKTIVTRINDISHTQSVSAKQRVTGLDFIPGLHPILSLSKMDQTLAVYQQVLTSLPSQNVLQIANDLENLRDLLHLLAFSKSCSLPQTSGLQKPESLDGVLEASLYSTEVVALSRLQGSLQDILQQLDVSPEC
neurological score (mice [1]): reversed impaired neurological score | 50% survival (mice [2]; 40% DR, mini-osmotic pump 0.05 mg/kg/h leptin for 16 days, 9 days with saline): 14 days | survival time (mice [2]; 40% DR, mini-osmotic pump 0.05 mg/kg/h leptin for 16 days): survived significantly longer | survival time (mice [2]; 40% DR, mini-osmotic pump 0.05 mg/kg/h leptin for 16 days, listed as Leptin): increases survival | mice survived (mice [2]; DR to 40% for 12 days, 1 mg/kg leptin daily during second week (5 days), 65% in control group, p<0.05): 95% | mortality (mice [3]): decreases mortality | mortality (mice [3]; listed as Leptin): decreased mortality | activity index (mice [4]): reverse activity in diseased animals to the level of health controls; also recorded: reversed activity to control level | eight-arm maze performance (mice [5]; DR to 40%): reversed the impaired eight-arm maze performance | eight-arm maze performance (mice [5]; ad libitum control group): not affected | Bax levels (Bcl-2, Bax, PARP): reducing | PARP cleavage (Bcl-2, Bax, PARP): reduction in the cleaved subunit | bcl-2 level (Bcl-2, Bax, PARP): up-regulation | cognitive function in the eight arm maze (mice [6]): reverse cognitive function in diseased animals to the level of health controls; also recorded: improved impaired cognitive function
